Assay results reported in US20130295102A1 (Novartis, published 2013).
Numbering of substitutions follows the chain as printed. Blank lines part the entries; values can stand above or below the binder they belong to.

Key:
[1] = target: Cynomolgus Factor P (cynomolgus); assay: cell-based or functional assay
[2] = target: T1, Human Factor P (human, UniProt P27918 29-469); assay: cell-based or functional assay
[3] = target: T2, Cynomolgus Factor P (cynomolgus); assay: SET, solution equilibrium titration
T2 construct: Purified from cynomolgus serum for SET/Biacore; Factor P of cynomolgus serum in the functional assays; also called Cyno Factor P; cyno FP
Method: (§1) In SET, a constant amount of antibody is incubated with different concentrations of antigen until equilibrium is reached. The concentration of free antibody in the equilibrated solution is determined by applying the solution on an antigen coated MSD™ plate (Meso Scale Discovery™) followed by incubation with an ECL-labeled secondary antibody and measurement of signal intensity. At low antigen concentrations, a strong signal is achieved (high concentration of free antibody which binds to the antigen on the plate) whereas for high antigen concentration, the antibody is completely antigen-captured, resulting in a low signal. If a sufficient number of antigen concentrations in a matching range are available, the titration curve allows for a reasonable determination of the affinity, using the appropriate fit model. […] The constant concentration of antibody applied in the assay should be in the range of, or below, the KD (Table 4).
(§2) Human Factor P (Complement Technology cat#: A139) and Cyno Factor P purified from cyno serum (protocol adapted from Nakano, et al., (1986) J Immunol Methods 90:77-83) were coated on standard binding MSD plates (Meso-Scale Discovery, 384-well: MSD cat#: L21XA, 96-well: MSD cat#: L15XA) at 0.2-0.3 μg/ml in 25 μl PBS and incubated overnight at 4° C. Factor P inhibitors were diluted to a fixed concentration (1 pM or 10 pM) in incubation buffer (PBS with 2% BSA (Sigma cat#: A4503) and 1% Tween20 and 1% Triton-X (Sigma cat#: 234729)), and added to a serial dilution of Factor P (human or cyno) in incubation buffer. Samples were allowed to reach equilibrium by incubation at RT overnight. Plates were washed 3× in wash buffer (PBS with 0.05% Tween20), and blocked with 100 μl incubation buffer at RT for 2 hrs. Plates were washed 3× in wash buffer. Sample containing Factor P inhibitors and Factor P titration were added to the plate (25 μl), and incubated at RT for 15 min. Plates were washed 3× in wash buffer. 25 μl detection antibody was added (Anti-Human (Goat) Sulfo-TAG, 1:1000 in incubation buffer, MSD cat#: R32AJ-1), and incubated at RT for 60 min. Plates were washed 3× in wash buffer, and 50 μl of 1×MSD Read buffer T was added (with surfactant, MSD cat#: R92TC-1). Plates were read on a MSD Spector Imager 6000.

[4] = target: T1, Human Factor P; assay: SET, solution equilibrium titration
Method: as §1, §2

[5] = target: T2, Cynomolgus Factor P; assay: Biacore SPR, captured Factor P
[6] = target: T1, Human Factor P; assay: Biacore SPR, captured Factor P

T1 sequence (P27918 29-469 limits assumed): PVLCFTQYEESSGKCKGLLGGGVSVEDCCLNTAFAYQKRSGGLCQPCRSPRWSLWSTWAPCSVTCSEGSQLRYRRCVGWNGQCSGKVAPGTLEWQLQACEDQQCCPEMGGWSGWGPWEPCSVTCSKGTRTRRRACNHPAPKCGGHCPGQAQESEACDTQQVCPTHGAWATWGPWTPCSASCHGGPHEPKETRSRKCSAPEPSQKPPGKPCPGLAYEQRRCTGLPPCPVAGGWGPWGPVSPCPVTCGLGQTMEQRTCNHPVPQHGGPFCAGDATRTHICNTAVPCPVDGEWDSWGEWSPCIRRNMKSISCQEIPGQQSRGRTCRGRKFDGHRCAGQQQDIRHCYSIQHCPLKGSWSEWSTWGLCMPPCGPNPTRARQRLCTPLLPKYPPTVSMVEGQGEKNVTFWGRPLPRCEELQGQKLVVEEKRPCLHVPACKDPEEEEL

B1: NVS962 (Fab, V domains shown)
VH: EVQLVQSGAEVKKPGSSVKVSCKASGGTFNSYAISWVRQAPGQGLEWMGRIIPIFGTANYAQKFQGRVTITADESTSTAYMELSSLRSEDTAVYYCARHGGYSFDSWGQGTLVTVSS
VL: SYELTQPPSVSVAPGQTARISCSGDNLGSKYVDWYQQKPGQAPVLVIYSDNNRPSGIPERFSGSNSGNTATLTISGTQAEDEADYYCQTYTSGNNYLVFGGGTKLTVLG
notes: also called Fab NVS962
Hemolytic assay IC50 (nM), 10% serum [1]: 16.1 nM
MAC Deposition, 20% Serum EC50 [1]: 12.1 nM
Zymosan-C3b IC50 (nM), 10% serum [1]: 9.91 nM
Hemolytic assay IC50 (nM), 10% serum [2]: 13.2 nM
Inhibition of C3a generation, 20% human serum [2]: 78.4 nM
MAC Deposition, 20% Serum EC50 [2]: 18.8 nM
Zymosan-C3b IC50 (nM), 10% serum [2]: 2.63 nM
Kd [3]: 0.047 nM
Kd [4]: 0.046 nM
Kd [5]: 0.182 nM
koff [5]: 0.000279 s⁻¹
kon [5]: 1.53e+06 M⁻¹ s⁻¹
Kd [6]: 0.083 nM
koff [6]: 0.000125 s⁻¹
kon [6]: 1.52e+06 M⁻¹ s⁻¹

B3: NVS808 (Fab, V domains shown)
VH: B1 VH with N30S, S103I
VL: B1 VL
Hemolytic assay IC50 (nM), 10% serum [1]: 15.5 nM
MAC Deposition, 20% Serum EC50 [1]: 8.38 nM
Hemolytic assay IC50 (nM), 10% serum [2]: 13.3 nM
MAC Deposition, 20% Serum EC50 [2]: 6.51 nM
Kd [4]: 0.107 nM
Kd [6]: 0.195 nM
koff [6]: 0.000154 s⁻¹
kon [6]: 791000 M⁻¹ s⁻¹

B4: NVS962-S (Fab, V domains shown)
VH: B1 VH with N30S
VL: B1 VL
notes: NVS962 with heavy chain N30 replaced with serine
Hemolytic assay IC50 (nM), 10% serum [1]: 12 nM
MAC Deposition, 20% Serum EC50 [1]: 15.6 nM
Zymosan-C3b IC50 (nM), 10% serum [1]: 1.94 nM
Hemolytic assay IC50 (nM), 10% serum [2]: 8.21 nM
MAC Deposition, 20% Serum EC50 [2]: 6.53 nM
Zymosan-C3b IC50 (nM), 10% serum [2]: 1.53 nM
Kd [3]: 0.141 nM
Kd [4]: 0.156 nM
Kd [5]: 0.127 nM
koff [5]: 6.66e-05 s⁻¹
kon [5]: 524000 M⁻¹ s⁻¹
Kd [6]: 0.161 nM
koff [6]: 0.000117 s⁻¹
kon [6]: 730000 M⁻¹ s⁻¹

B5: NVS962-T (Fab, V domains shown)
VH: B1 VH with N30T
VL: B1 VL
notes: NVS962 with heavy chain N30 replaced with threonine; also called NSV962-T
Hemolytic assay IC50 (nM), 10% serum [1]: 12.5 nM
MAC Deposition, 20% Serum EC50 [1]: 5.42 nM
Zymosan-C3b IC50 (nM), 10% serum [1]: 3.1 nM
Hemolytic assay IC50 (nM), 10% serum [2]: 9.31 nM
MAC Deposition, 20% Serum EC50 [2]: 6.61 nM
Zymosan-C3b IC50 (nM), 10% serum [2]: 1.75 nM
Kd [3]: 0.354 nM
Kd [4]: 0.251 nM
Kd [5]: 0.175 nM
koff [5]: 8.56e-05 s⁻¹
kon [5]: 488000 M⁻¹ s⁻¹
Kd [6]: 0.131 nM
koff [6]: 8.35e-05 s⁻¹
kon [6]: 639000 M⁻¹ s⁻¹

B7: NVS962-G (Fab, V domains shown)
VH: B1 VH with N30G
VL: B1 VL
notes: NVS962 with heavy chain N30 replaced with glycine
Hemolytic assay IC50 (nM), 10% serum [1]: 14.2 nM
MAC Deposition, 20% Serum EC50 [1]: 9.27 nM
Zymosan-C3b IC50 (nM), 10% serum [1]: 2.94 nM
Hemolytic assay IC50 (nM), 10% serum [2]: 13.4 nM
MAC Deposition, 20% Serum EC50 [2]: 12.7 nM
Zymosan-C3b IC50 (nM), 10% serum [2]: 1.18 nM
Kd [3]: 0.567 nM
Kd [4]: 0.953 nM
Kd [5]: 1.08 nM
koff [5]: 0.000339 s⁻¹
kon [5]: 313000 M⁻¹ s⁻¹
Kd [6]: 1.14 nM
koff [6]: 0.00044 s⁻¹
kon [6]: 387000 M⁻¹ s⁻¹

These reach a lower Kd [4]. Values come first.

MAC Deposition, 20% Serum EC50 [1]: 6.35 nM
MAC Deposition, 20% Serum EC50 [2]: 5.4 nM
Kd [4]: 0.027 nM
Kd [6]: 0.106 nM
koff [6]: 0.000123 s⁻¹
kon [6]: 1.21e+06 M⁻¹ s⁻¹
B2: NVS807 (Fab, V domains shown)
VH: B1 VH with N30S, S103Y
VL: B1 VL
Hemolytic assay IC50 (nM), 10% serum [1]: 12.6 nM
Hemolytic assay IC50 (nM), 10% serum [2]: 12.9 nM

MAC Deposition, 20% Serum EC50 [1]: 5.95 nM
MAC Deposition, 20% Serum EC50 [2]: 5.9 nM
Kd [4]: 0.0003 nM
Kd [6]: 0.003 nM
koff [6]: 9.88e-06 s⁻¹
kon [6]: 3.61e+06 M⁻¹ s⁻¹
B6: NVS805 (Fab, V domains shown)
VH: B1 VH with N30S, S103V
VL: B1 VL with E3V, Q16K, E80M, Q88A, T91D, G93S, N94P, N95R, Y96T, L97E
Hemolytic assay IC50 (nM), 10% serum [1]: 22.1 nM
Hemolytic assay IC50 (nM), 10% serum [2]: 12.8 nM
